Test results reported in PMC6487837.

assay: confocal microscopy, plasma membrane localisation, HT1080 and HL-1 cells; conditions: glycan lost; control: wild-type DSC2-eYFP

localisation_or_trafficking, no change:
Desmocollin-2 (DSC2): p.N166Q
Desmocollin-2 (DSC2): p.N392Q
Desmocollin-2 (DSC2): p.N546Q
Desmocollin-2 (DSC2): p.N629Q
